Reference: paper PMC6460258

Columns and labels:
[1] = target: GST-tagged Lcl (recombinant full length Lcl, 18 repeats) (Legionella pneumophila); test: SPR; Biacore X100; […] (100 nM) […]
[2] = target: His-tagged full length Lcl (Legionella collagen-like protein) with 18 repeats (Legionella pneumophila serogroup 1, strain LU1536); test: SEC; […], PBS, 0.5 ml/min; […]

| Substance | Kd [1] [nM] | stoichiometry N [2] |
| --- | --- | --- |
| His-tagged Lcl lacking the C-terminal domain (Lcl[change]) (domain or fragment) | 123 |  |
| His-tagged Lcl lacking the collagenous repeat domain (Lcl[change]) (domain or fragment) | 1040 |  |
| His-tagged full length Lcl (Legionella collagen-like protein) with 18 repeats (natural protein) | 28.7 | 3 |
